One substance from publication PMC6989145 can be followed below.

In experiment [1] the target is murine perforin-2 (mPFN2) ectodomain (mouse) (UniProt A1L314). The experiment in a line: high-speed atomic force microscopy; PFN2 monomers (0.043 mg/ml) incubated 5 min directly on freshly cleaved mica; 20 mM Hepes-NaOH pH 7.5, 200 mM NaCl, 2 mM CaCl2.
Experiment [2] shares this target. The experiment in a line: cryo-EM structure; pre-pore oligomers formed in solution: 0.5 mg/ml in 50 mM citric acid buffer pH 5.5, 150 mM NaCl, 37°C overnight; purified by SEC (Superose 6); 0.01% Tween 20 added; C16 symmetry. (In general: SEC sorts molecules by how far they enter the pores of the column.)
The target is the same in experiment [3]. The experiment in a line: cryo-EM structure; pore: pre-pore sample lowered to pH 3.6 to 4.0 with 0.056% Cymal-6, room temperature, 30 min; C16 symmetry.
The target is the same in experiment [4]. The experiment in a line: high-speed atomic force microscopy; PFN2 monomers (0.043 mg/ml) incubated 5 min on a mica-supported E. coli lipid bilayer; 20 mM Hepes-NaOH pH 7.5, 200 mM NaCl, 2 mM CaCl2; subunit association and dissociation at incomplete rings, frames of 500 ms.

The stoichiometry N is a count of units in the complex or per binding partner.

For the substance “murine perforin-2 (mPFN2) ectodomain (from UniProt A1L314 20-652) (domain or fragment)”, the stoichiometry N in experiment [1] is 1 to 16 subunits; in experiment [2] it was 16 subunits; in experiment [3], 16. The same substance came in with a subunit association rate (subunits·s^−1) in experiment [4] of 2.4.
